Assay [1] has as its target CHIKV virus-like particles (strain 37997) (chikungunya virus).
Assay [2] has the same target. The source holds these as a separate data set.
Assay [3] concerns the target CHIKV strain 181/25 (virions; also E2-E1 shown on infected cells) (chikungunya virus). Nature of the assay: ELISA, CHIKV-181/25 captured with a human anti-CHIKV mAb, anti-mouse IgG-HRP.
The target in assay [4] is CHIKV E2-6K-E1 envelope proteins (strain S27) with E2 Q195A (Chikungunya virus strain S27) (UniProt Q8JUX5). Nature of the assay: flow cytometry, transfected 293T cells.

Where two headings read alike, the source gives them in different places.

B1: Mxra8-Fc (extracellular domain of mouse Mxra8 fused to mouse IgG2b Fc) (Fc fusion)
chain: SGPSGTAAASSSLVSESVVSLAAGTQAVLRCQSPRMVWTQDRLHDRQRVVHWDLSGGPGSQRRRLVDMYSAGEQRVYEPRDRDRLLLSPSAFHDGNFSLLIRAVDRGDEGVYTCNLHHHYCHLDESLAVRLEVTEDPLLSRAYWDGEKEVLVVAHGAPALMTCINRAHVWTDRHLEEAQQVVHWDRQLPGVSHDRADRLLDLYASGERRAYGPPFLRDRVSVNTNAFARGDFSLRIDELERADEGIYSCHLHHHYCGLHERRVFHLQVTEPAFEPPARASPGNGSGHSSAPSPDPTLTRGHSIINVIVPEDHTHPSGPISTINPCPPCKECHKCPAPNLEGGPSVFIFPPNIKDVLMISLTPKVTCVVVDVSEDDPDVQISWFVNNVEVHTAQTQTHREDYNSTIRVVSTLPIQHQDWMSGKEFKCKVNNKDLPSPIERTISKIKGLVRAPQVYILPPPAEQLSRKDVSLTCLVVGFNPGDISVEWTSNGHTEENYKDTAPVLDSDGSYFIYSKLNMKTSKWEKTDSFSCNVRHEGLKNYYLKKTISRSPGK
For the molecule B1, the EC50 (read off the curve) stood at 0.01 µg/mL in assay [1], 0.01 µg/mL in assay [2] and 0.1 µg/mL in assay [3].

B2: Mxra8-Fc (mouse Mxra8 extracellular domain fused to mouse IgG2b Fc) (Fc fusion)
chain: B1 chain
In turn, B2 had a Binding Reactivity (% WT) in assay [4] of 82.4 % WT.

B3: MXRA8-2-Fc (extracellular domain of human MXRA8-2 fused to mouse IgG2b Fc) (Fc fusion)
chain: ISVLLHSGSSVPAAAGSSVVSESAVSWEAGARAVLRCQSPRMVWTQDRLHDRQRVLHWDLRGPGGGPARRLLDLYSAGEQRVYEARDRGRLELSASAFDDGNFSLLIRAVEETDAGLYTCNLHHHYCHLYESLAVRLEVTDGPPATPAYWDGEKEVLAVARGAPALLTCVNRGHVWTDRHVEEAQQVVHWDRQPPGVPHDRADRLLDLYASGERRAYGPLFLRDRVAVGADAFERGDFSLRIEPLEVADEGTYSCHLHHHYCGLHERRVFHLTVAEPHAEPPPRGSPGNGSSHSGAPGPDPTLARGHNVINVIVPESRAHASVRSPSGPISTINPCPPCKECHKCPAPNLEGGPSVFIFPPNIKDVLMISLTPKVTCVVVDVSEDDPDVQISWFVNNVEVHTAQTQTHREDYNSTIRVVSTLPIQHQDWMSGKEFKCKVNNKDLPSPIERTISKIKGLVRAPQVYILPPPAEQLSRKDVSLTCLVVGFNPGDISVEWTSNGHTEENYKDTAPVLDSDGSYFIYSKLNMKTSKWEKTDSFSCNVRHEGLKNYYLKKTISRSPGK
B3: the EC50 (read off the curve) in assay [1] came out at 0.05 µg/mL.

The values above are taken from US20240124553A1.
